Source: US20160046943, “Interferon Production Using Short RNA Duplexes” (YALE UNIVERSITY, published 2016)
Read-outs that look alike come from different tables or passages of the source.

Experiments:
[1] = target: T1, RIG-I (full length) (Homo sapiens, UniProt O95786 O95786:1-925); set-up: K half: unit not given here; conditions: 5'-OH
T1 sequence: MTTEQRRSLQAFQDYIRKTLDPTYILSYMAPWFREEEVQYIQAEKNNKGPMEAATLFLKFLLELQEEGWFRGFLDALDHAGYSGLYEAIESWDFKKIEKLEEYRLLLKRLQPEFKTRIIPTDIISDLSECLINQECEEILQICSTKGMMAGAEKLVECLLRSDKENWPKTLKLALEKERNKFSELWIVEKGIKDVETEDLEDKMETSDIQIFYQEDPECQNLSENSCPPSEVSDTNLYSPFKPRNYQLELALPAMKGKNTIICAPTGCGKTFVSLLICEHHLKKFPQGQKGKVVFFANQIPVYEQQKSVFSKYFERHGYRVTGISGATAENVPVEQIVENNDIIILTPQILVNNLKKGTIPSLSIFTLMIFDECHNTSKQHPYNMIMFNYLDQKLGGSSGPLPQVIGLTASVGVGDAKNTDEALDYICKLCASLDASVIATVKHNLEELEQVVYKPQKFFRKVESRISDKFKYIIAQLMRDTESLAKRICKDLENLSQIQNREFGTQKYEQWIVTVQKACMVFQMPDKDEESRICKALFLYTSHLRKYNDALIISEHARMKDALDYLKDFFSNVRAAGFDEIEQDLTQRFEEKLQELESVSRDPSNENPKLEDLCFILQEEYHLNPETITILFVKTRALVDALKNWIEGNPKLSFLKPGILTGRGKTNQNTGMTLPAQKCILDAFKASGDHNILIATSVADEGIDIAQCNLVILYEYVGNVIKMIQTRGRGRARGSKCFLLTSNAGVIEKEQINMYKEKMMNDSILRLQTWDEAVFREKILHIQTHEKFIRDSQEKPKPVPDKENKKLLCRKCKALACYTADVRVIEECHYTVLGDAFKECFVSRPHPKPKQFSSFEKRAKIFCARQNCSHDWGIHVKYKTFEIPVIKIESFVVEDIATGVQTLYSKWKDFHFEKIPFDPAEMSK

[2] = target: T1, RIG-I (full length); conditions: Km,RNA per estimated poly I:C strand, ATPase assay at 5 mM ATP
[3] = target: T1, RIG-I (full length); experiment: Km,RNA, ATPase assay at 5 mM ATP; SD 0.40; conditions: tags: pET-SUMO (His-SUMO vector, Ni-NTA purified), E. coli Rosetta II(DE3); hairpin, 8 bp, UUCG tetraloop, blunt end
Procedure: (§1) ATPase activity of RIG-I was measured with the NADH-coupled ATPase assay adapted from previously described protocols (Luo et al., 2011, Cell 147:409-422). Experiments were set up in 50 μl reaction volumes in 96 well format using Corning clear half-area flat bottom plates (#3695). Each 50 μl reaction contained 10 μl of 5×NADH enzyme buffer (1 mM NADH, 100 U of lactate dehydrogenase/mL, 500 U/mL of pyruvate kinase/mL, and 2.5 mM phosphoenolpyruvate), 5-10 nM of RIG-I, 5 μl of varying amounts of either RNA or ATP, and a remaining volume of 25 mM 3-(N-morpholino)propanesulfonic acid (MOPS) pH 7.4, 150 mM KCl, 2 mM DTT, and 0.1% Triton X-100. The rate of ATP hydrolysis was indirectly determined by monitoring the loss of NADH by reading the absorbance at 340 nm using a Biotek Synergy H1 plate reader.
(§2) To more precisely define the minimal duplex length for enzymatic activation of RIG-I, the steady-state kinetic parameters for RIG-I activation by RNA hairpins and double-stranded duplexes ranging in size from 8 to 30 base pairs, was measured with and without a 5′triphosphate (RNAs listed in Table 2). […]

[4] = target: T1, RIG-I (full length); experiment: Km,RNA (apparent binding constant), ATPase assay at 5 mM ATP, 5 nM RIG-I, MOPS pH 7.4, 150 mM KCl; SD 0.20; conditions: tags: pET-SUMO (His-SUMO vector, Ni-NTA purified), E. coli Rosetta II(DE3); palindromic blunt duplex
Procedure: as §1, §2

[5] = target: T1, RIG-I (full length); experiment: Km,RNA, ATPase assay at 5 mM ATP; SD 1.0; conditions: tags: pET-SUMO (His-SUMO vector, Ni-NTA purified), E. coli Rosetta II(DE3)
Procedure: as §1
To more precisely define the minimal duplex length for enzymatic activation of RIG-I, the steady-state kinetic parameters for RIG-I activation by RNA hairpins and double-stranded duplexes ranging in size from 8 to 30 base pairs, was measured with and without a 5′triphosphate (RNAs listed in Table 2). In order to evaluate the respective roles of ATP and RNA in activation of the RIG-I:RNA complex, the Michaelis constant for ATP (K_{m,ATP}) at saturating RNA (500 nM) and the Michaelis constant for RNA (K_{m,RNA}) at saturating ATP (5 mM) was measured for each RNA construct (kcat, K_{m,ATP} and K_{m,RNA} summary in Table 4).

[6] = target: T1, RIG-I (full length); experiment: Km,RNA, ATPase assay at 5 mM ATP; SD 3.4; conditions: tags: pET-SUMO (His-SUMO vector, Ni-NTA purified), E. coli Rosetta II(DE3); palindromic blunt duplex
Procedure: as §1, §2

[7] = target: T1, RIG-I (full length); experiment: Km,RNA, ATPase assay at 5 mM ATP; SD 1.5; conditions: tags: pET-SUMO (His-SUMO vector, Ni-NTA purified), E. coli Rosetta II(DE3); palindromic blunt duplex
Procedure: as §1, §2

[8] = target: T1, RIG-I (full length); experiment: Km,RNA, ATPase assay at 5 mM ATP; SD 15; conditions: tags: pET-SUMO (His-SUMO vector, Ni-NTA purified), E. coli Rosetta II(DE3); palindromic blunt duplex
Procedure: as §1, §2

[9] = target: T1, RIG-I (full length); experiment: Km,RNA, ATPase assay at 5 mM ATP; SD 1.1; conditions: tags: pET-SUMO (His-SUMO vector, Ni-NTA purified), E. coli Rosetta II(DE3); palindromic blunt duplex
Procedure: as §1, §2

[10] = target: T1, RIG-I (full length); experiment: Km,RNA, ATPase assay at 5 mM ATP; SD 0.50; conditions: tags: pET-SUMO (His-SUMO vector, Ni-NTA purified), E. coli Rosetta II(DE3)
Procedure: as §1, §2

[11] = target: T1, RIG-I (full length); experiment: Km,RNA, ATPase assay at 5 mM ATP; SD 0.10; conditions: tags: pET-SUMO (His-SUMO vector, Ni-NTA purified), E. coli Rosetta II(DE3); palindromic blunt duplex
Procedure: as §1, §2

[12] = target: T1, RIG-I (full length); experiment: Km,RNA, ATPase assay at 5 mM ATP; SD 0.20; conditions: tags: pET-SUMO (His-SUMO vector, Ni-NTA purified), E. coli Rosetta II(DE3); palindromic blunt duplex
Procedure: as §1, §2

[13] = target: T1, RIG-I (full length); experiment: Km,RNA, ATPase assay at 5 mM ATP; SD 1.3; conditions: tags: pET-SUMO (His-SUMO vector, Ni-NTA purified), E. coli Rosetta II(DE3); palindromic blunt duplex
Procedure: as §1, §2

Q: With LMW poly I:C as the molecule, how does the activity ([1]; ATPase kcat, Km,ATP 690 uM) read?
A: The activity was 4.9 s⁻¹.

Q: What about the K half ([1]; Km,RNA, ATPase assay at 5 mM ATP, SD 1.1) of the same molecule?
A: Its K half is 2.4.

Q: poly I:C fraction A7 (~25 bp) was tested. Which K half [2] did it give?
A: The K half was 20 nM.

Q: With poly I:C fraction A1 (~500 bp) as the molecule, how does the K half [2] read?
A: The K half was 20 nM.

Q: How did the “apparent K (half saturation)” value [3] turn out when GGCGCGGCUUCGGCCGCGCC (ssRNA, 5'-triphosphate) [5'ppp8L] was run?
A: Its value is 5.16 nM.

B1: 5'pppGC10 (dsRNA)
RNA 1: GGCGCGCGCC
RNA 2: GGCGCGCGCC
modifications: 5'-triphosphate
Q: For B1, which “apparent K (half saturation)” value [4] is on record?
A: The value was 1.16 nM.

B2: 5'ppp30L (ssRNA)
RNA: GGAUCGAUCGAUCGAUCGGCAUCGAUCGGCUUCGGCCGAUCGAUGCCGAUCGAUCGAUCGAUCC
modifications: 5'-triphosphate
Q: For B2, which “apparent K (half saturation)” value ([5]; hairpin, 30 bp, UUCG tetraloop, blunt end) is on record?
A: The value was 10.8 nM.

B3: GC18 (dsRNA)
RNA 1: GCGCGCGCGCGCGCGCGC
RNA 2: GCGCGCGCGCGCGCGCGC
modifications: 5'-OH
Q: With B3 as the molecule, how does the “apparent K (half saturation)” value [6] read?
A: The value was 26.7 nM.

B4: GC10 (dsRNA)
RNA 1: GCGCGCGCGC
RNA 2: GCGCGCGCGC
modifications: 5'-OH
Q: For B4, which “apparent K (half saturation)” value [7] is on record?
A: The value was 24.4 nM.

B5: GC8 (dsRNA)
RNA 1: GCGCGCGC
RNA 2: GCGCGCGC
modifications: 5'-OH
Q: How did the “apparent K (half saturation)” value [8] turn out when B5 was run?
A: The value was 91.4 nM.

B6: GC22 (dsRNA)
RNA 1: GCGCGCGCGCGCGCGCGCGCGC
RNA 2: GCGCGCGCGCGCGCGCGCGCGC
modifications: 5'-OH
Q: With B6 as the molecule, how does the “apparent K (half saturation)” value [9] read?
A: Its value is 27.3 nM.

Q: GGAUCGAUCGAUCGAUCGGCUUCGGCCGAUCGAUCGAUCGAUCC (ssRNA, 5'-triphosphate) [5'ppp20L] was tested. Which “apparent K (half saturation)” value [10] did it give?
A: The value was 10.1 nM.

Q: How did the “apparent K (half saturation)” value ([10]; hairpin, 10 bp, UUCG tetraloop, blunt end) turn out when GGACGUACGUUUCGACGUACGUCC (ssRNA, 5'-triphosphate) [5'ppp10L] was run?
A: Its value is 4.46 nM.

B7: GC12 (dsRNA)
RNA 1: GCGCGCGCGCGC
RNA 2: GCGCGCGCGCGC
modifications: 5'-OH
Q: For B7, which “apparent K (half saturation)” value ([5]; palindromic blunt duplex) is on record?
A: Its value is 13.1 nM.

B8: 5'pppGC22 (dsRNA)
RNA 1: GGCGCGCGCGCGCGCGCGCGCC
RNA 2: GGCGCGCGCGCGCGCGCGCGCC
modifications: 5'-triphosphate
Q: B8 was tested. Which “apparent K (half saturation)” value ([5]; palindromic blunt duplex, two 5'ppp ends) did it give?
A: Its value is 3.58 nM.

B9: 5'pppCM12 (dsRNA)
RNA 1: GGACGUACGUCC
RNA 2: GGACGUACGUCC
modifications: 5'-triphosphate
Q: For B9, which “apparent K (half saturation)” value [11] is on record?
A: The value was 2.62 nM.

B10: 5'pppGC12 (dsRNA)
RNA 1: GGCGCGCGCGCC
RNA 2: GGCGCGCGCGCC
modifications: 5'-triphosphate
Q: For B10, which “apparent K (half saturation)” value [12] is on record?
A: The value was 2.33 nM.

B11: GC14 (dsRNA)
RNA 1: GCGCGCGCGCGCGC
RNA 2: GCGCGCGCGCGCGC
modifications: 5'-OH
Q: For B11, which “apparent K (half saturation)” value [13] is on record?
A: The value was 23.2 nM.
